Assay results as given in US10370436B2, “Anti-pseudomonas Psl binding molecules and uses thereof” (priority 2011, dated 2019).

Legend:
[1] = test system: luminescent P. aeruginosa serogroup 05 strain (PAO1.lux); assay: Opsonophagocytosis killing (OPK) assay, PAO1.lux; assay type: cell-based, Pseudomonas aeruginosa; conditions: human IgG1 antibodies, differentiated HL-60 cells, baby rabbit serum, FIG. 2A
Method: (§1) This example describes the evaluation of prioritized human IgG1 antibodies to promote OPK of P. aeruginosa. […] OPK assays were performed as described in (DiGiandomenico, A., et al., Infect Immun 72, 7012-7021 (2004)), with modifications. Briefly, assays were performed in 96-well plates using 0.025 ml of each OPK component; P. aeruginosa strains; diluted baby rabbit serum; differentiated HL-60 cells; and monoclonal antibody. In some OPK assays, luminescent P. aeruginosa strains, which were constructed as described (Choi, K. H., et al., Nat Methods 2, 443-448 (2005)), were used. Luminescent OPK assays were performed as described above but with determination of relative luciferase units (RLUs) using a Perkin Elmer ENVISION Multilabel plate reader (Perkin Elmer).
This example describes two series of experiments evaluating the ability of PMB-mAb conjugates to promote OPK of P. aeruginosa. In the first experiments (FIGS. 15A-B), conjugate-mediated OPK activity by human HL-60 neutrophil cell line in the presence of rabbit complement was evaluated using P. aeruginosa strains expressing bacterial luciferase as described in Example 2. R347 was used as a negative control in these experiments. […] In the second series of experiments, reduction in luminescence following 2 h incubation relative to control lacking mAb was used to determine % killing.

[2] = test system: P. aeruginosa strain 9882-80 (O11); assay: OPK assay, strain 9882-80.lux; assay type: cell-based, Pseudomonas aeruginosa; conditions: strain 9882-80.lux (O11); FIG. 2B
Method: as §1
The ability of the WapR-004 and Cam-003 antibodies to mediate OPK activity against another clinically relevant O-antigen serotype strain, 9882-80.lux, was evaluated.

[3] = test system: P. aeruginosa strains PAO1, 33356, 6294, 6077, 6206; assay: Acute pneumonia model, organ burden; assay type: in vivo, BALB/c mice; conditions: 6294 (O6) and 6206 (O11); FIGS. 7E, 7F
Method: Antibodies or PBS were administered 24 hours before infection in each model. P. aeruginosa acute pneumonia, keratitis, and thermal injury infection models were performed as described (DiGiandomenico, A., et al., Proc Natl Acad Sci USA 104, 4624-4629 (2007)), with modifications. In the acute pneumonia model, BALB/c mice (The Jackson Laboratory) were infected with P. aeruginosa strains suspended in a 0.05 ml inoculum. In the thermal injury model, CF-1 mice (Charles River) received a 10% total body surface area burn with a metal brand heated to 92° C. for 10 seconds. Animals were infected subcutaneously with P. aeruginosa strain 6077 at the indicated dose. For organ burden experiments, acute pneumonia was induced in mice followed by harvesting of lungs, spleens, and kidneys 24 hours post-infection for determination of CFU.

[4] = test system: P. aeruginosa 6077 (O11-cytotoxic); assay: P. aeruginosa corneal infection (keratitis) model; assay type: in vivo, mice; conditions: versus negative control-treated animals, 24 hours after infection
Method: FIG. 8 (A-G): Anti-Psl monoclonal antibodies Cam-003 and WapR-004 are active in a P. aeruginosa keratitis model and thermal injury model. Mice were treated with a control IgG1 antibody or Cam-003 at 45 mg/kg (A, B) or 15 mg/kg (C, D) or PBS or a control IgG1 antibody or Cam-003 at 45 mg/kg or WapR-004 at 45 mg/kg or 15 mg/kg or 5 mg/kg (F, G) 24 hours prior to infection with 6077 (O11-cytotoxic—2×10^6 CFU). Immediately before infection, three 1 mm scratches were made on the left cornea of each animal followed by topical application of P. aeruginosa in a 5 μl inoculum. 24 hours after infection, the corneal pathology scores were calculated followed by removal of the eye for determination of viable CFU. Differences in pathology scores and viable CFU were determined by the Mann-Whitney U-test. (A) P=0.0001, (B) P<0.0001, (C) P=0.0003, (D) P=0.0015. (F) and (G) Cam-003 (45 mg/kg) vs. WapR-004 (45 mg/kg): P=0.018; Cam-003 (45 mg/kg) vs. WapR-004 (15 mg/kg): P=0.0025; WapR-004 (45 mg/kg) vs. WapR-004 (15 mg/kg): P=0.1331; WapR-004 (5 mg/kg) vs. Ctrl: P<0.0001. Results are representative of five independent experiments. (E) Survival analysis from Cam-003 and R347 treated CF-1 mice in a P. aeruginosa thermal injury model after 6077 infection (2×10^5 CFU) (log-rank: R347 vs. Cam-003 15 mg/kg, P=0.0094; R347 vs. Cam-003 5 mg/kg, P=0.0017). […]

[5] = test system: P. aeruginosa PAO1.lux association with A549 cells; assay: Cell attachment assay, PAO1.lux to A549 cells; assay type: cell-based, Pseudomonas aeruginosa; conditions: MOI of 10, FIG. 4, FIG. 9B
Method: Anti-Psl antibodies were added to a confluent monolayer of A549 cells (an adenocarcinoma human alveolar basal epithelial cell line) grown in opaque 96-well plates (Nunc Nunclon Delta). Log-phase luminescent P. aeruginosa PAO1 strain (PAO1.lux) was added at an MOI of 10. After incubation of PAO1.lux with A549 cells at 37° C. for 1 hour, the A549 cells were washed, followed by addition of LB+0.5% glucose. Bacteria were quantified following a brief incubation at 37° C. as performed in the OPK assay described in Example 2. Measurements from wells without A549 cells were used to correct for non-specific binding.

B1: WapR-004: anti-Psl antibody, VH SEQ ID NO: 11 and VL SEQ ID NO: 12 (antibody, V domains shown)
VH: EVQLLESGPGLVKPSETLSLTCNVAGGSISPYYWTWIRQPPGKGLELIGYIHSSGYTDYNPSLKSRVTISGDTSKKQFSLHVSSVTAADTAVYFCARGDWDLLHALDIWGQGTLVTVSS
VL: EIVLTQSPSSLSTSVGDRVTITCRASQSIRSHLNWYQQKPGKAPKLLIYGASNLQSGVPSRFSGSGSGTDFTLTISSLQPEDFATYYCQQSYSFPLTFGGGTKLEIK
modifications: WapR-004 VH; WapR-004 & WarR-004RAD VL
- OPK activity (concentration dependent killing) [1]: superior OPK activity
- OPK activity [2]: OPK activity extends to strain 9882-80
- dissemination to the spleen and kidneys [3]: effective at reducing P. aeruginosa dissemination to the spleen and kidneys
- organ burden [3]: reduced organ burden
- bacterial counts in total eye homogenates [4]: reduced bacterial counts
- corneal pathology ([4]; FIGS. 8A-D, F-G): significantly less pathology
- inhibition of association of PAO1.lux to A549 cells [5]: most active at inhibiting P. aeruginosa cell attachment to A549 lung epithelial cells
